Experimental data from US11098288B2, “D-type amino acid dehydrogenase” (Kureha Corporation, priority 2017, dated 2021).

Experiments:
[1] = Optimum pH in catalytic reaction (deamination of meso-diaminopimelic acid); format: biochemical, Thermosyntropha lipolytica; settings: NADP^+, 50° C.
Method: The optimum pH was evaluated for the D-type amino acid dehydrogenase obtained in Example 2. The activity of the enzyme was measured by determining an increase in absorbance at wavelength of 340 nm of NADPH produced by the enzymatic catalytic reaction.
The absorbance was measured by an ultraviolet-visible spectrophotometer UV-1800 (available from SHIMADZU). The specific activity of the enzyme was calculated from the concentration of the enzyme used and enzyme dilution rate using the obtained absorbance change and the following equation.

[2] = Activity-staining with D-alanine or L-alanine as substrate; format: biochemical, Thermosyntropha lipolytica; settings: 10 mM D-alanine or L-alanine, 1.25 mM NADP^+, pH 8.0, 50° C., 30 minutes
Method: The activity was evaluated for the D-type amino acid dehydrogenase obtained in Example 2 above. The activity of the enzyme was evaluated by an activity-staining method due to a catalytic reaction of the enzyme. More specifically, an appropriate amount of enzyme solution was subjected to disc gel electrophoresis. […] The 2-(4-iodophenyl)-3-(4-nitrophenyl)-5-phenyl-2H-tetrazolium chloride in the reaction solution is reduced to form a […] formazan. A reaction formula is indicated below. In the following reaction formula, the D-type amino acid dehydrogenase is referred to as “meso-DAPDH”.

[3] = Optimum temperature in catalytic reaction; format: biochemical, Thermosyntropha lipolytica; settings: meso-diaminopimelic acid as substrate, NADP^+
Text: The measurement results are illustrated in FIG. 6.

[4] = pH stability of the enzyme (residual activity after treatment in buffers); format: physicochemical, Thermosyntropha lipolytica; settings: pH 5.0 to 9.5, 50° C. for 30 minutes, 100 mM buffer; activity at pH 9.0 as 100%
Method: The D-type amino acid dehydrogenase purified in Example 2 was heat-treated at 50° C. for 30 minutes in each 100 mM buffer solution (pH 1.5, 2.0, 2.5, 3.0, 3.5, 4.0, 4.5, 5.0, 5.5, 6.0, 6.5, 7.0, 7.5, 8.0, 8.5, 9.0, 9.5, 10.0, 10.5, 11.0, or 11.3), and the residual activity after standing for 5 minutes in ice was confirmed. […] The activity in the treatment at pH 9.0 was defined as 100%, and the residual activity after the treatment at other pH was calculated as the relative activity.

[5] = Thermal stability of the enzyme (residual activity after heat treatment); format: physicochemical, Thermosyntropha lipolytica; settings: 70° C., 30 minutes, 10 mM phosphate buffer pH 7.2; activity at 50° C. as 100%
Method: The D-type amino acid dehydrogenase purified in Example 2 was heat-treated for 30 minutes under various temperature conditions (50, 55, 60, 65, or 70° C.) in 10 mM phosphate buffer solution (pH 7.2), and the residual activity after standing for 5 minutes in ice was confirmed. […] The residual activity after treatment at other temperatures was calculated as a relative activity, with the activity at 50° C. as 100%.

B1: D-type amino acid dehydrogenase: D-type amino acid dehydrogenase derived from Thermosyntropha lipolytica, amino acid sequence SEQ ID NO: 2, hexamer (protein, listed as Thermosyntropha lipolytica)
chain: MGEKIRVAIVGYGNIGRYALDAIKAAPDMELAGVVRRSSSLGDKPAELADVPVVGSIKELTGVKVALLCTPTRSVPEYAREILALGINTVDSYDIHGQLADLRLELDKVAKEHNAVAVISAGWDPGTDSMVRCMFEFMAPKGITYTNFGPGMSMGHSVAVKAVKGVKNALSMTIPLGTGVHRRMVYVELEPGADFAQVEKAVKTDPYFVKDETHVIQVEDVDALIDMGHGVLMERKGVSGGTHNQLLSFSMRINNPALTAQIMVASARASVKQKPGAYTMIQIPIIDYMYGDPDEIIRQLV
modifications: hexamer
- optimum pH for activity [1]: 10.5
- stereoselectivity for substrate (activity-staining) [2]: selectively acts on the D-amino acid
- optimum temperature for activity [3]: about 55 °C
- residual activity after pH treatment [4]: ≥ 90%
- residual activity after heat treatment [5]: about 74%
